In IntAct's records for PubMed 35512704:

B1: Speckle-type POZ protein (Homo sapiens), O43791 (parent)
chain: MSRVPSPPPPAEMSSGPVAESWCYTQIKVVKFSYMWTINNFSFCREEMGEVIKSSTFSSGANDKLKWCLRVNPKGLDEESKDYLSLYLLLVSCPKSEVRAKFKFSILNAKGEETKAMESQRAYRFVQGKDWGFKKFIRRDFLLDEANGLLPDDKLTLFCEVSVVQDSVNISGQNTMNMVKVPECRLADELGGLWENSRFTDCCLCVAGQEFQAHKAILAARSPVFSAMFEHEMEESKKNRVEINDVEPEVFKEMMCFIYTGKAPNLDKMADDLLAAADKYALERLKVMCEDALCSNLSVENAAEILILADLHSADQLKTQAVDFINYHASDVLETSGWKSMVVSHPHLVAEAYRSLASAQCPFLGPPRKRLKQS

Variants of: B1
Conditions: with kdm5a_human KDM5A

Row | effect of a mutation on the interaction | Variant
1 | with no effect | F102C

Variants of: B1
Conditions: with kdm5c_human KDM5C

Row | effect of a mutation on the interaction | Variant
2 | with no effect | F102C

Variants of: B1
Conditions: with kdm6a_human KDM6A

Row | effect of a mutation on the interaction | Variant
3 | with no effect | F102C

Variants of: B1
Conditions: with vgfr2_human KDR

Row | effect of a mutation on the interaction | Variant
4 | with no effect | F102C

Variants of: B1
Conditions: with lims1_human LIMS1, P48059

Row | effect of a mutation on the interaction | Variant
5 | with no effect | F102C

Variants of: B1
Conditions: with maga6_human MAGEA6, P43360
Chain of maga6_human MAGEA6, P43360 (P43360 whole entry): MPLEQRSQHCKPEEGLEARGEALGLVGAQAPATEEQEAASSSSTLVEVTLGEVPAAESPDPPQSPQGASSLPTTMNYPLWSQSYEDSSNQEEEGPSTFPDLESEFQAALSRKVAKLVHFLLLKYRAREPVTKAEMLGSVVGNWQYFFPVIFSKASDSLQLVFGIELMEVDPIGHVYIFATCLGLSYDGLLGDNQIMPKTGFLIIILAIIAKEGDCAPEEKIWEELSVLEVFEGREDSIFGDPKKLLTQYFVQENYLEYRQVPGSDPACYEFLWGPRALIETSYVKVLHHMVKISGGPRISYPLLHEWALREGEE

Row | effect of a mutation on the interaction | Variant
6 | with no effect | F102C

Variants of: B1
Conditions: with m3k1_human MAP3K1, Q13233

Row | effect of a mutation on the interaction | Variant
7 | with no effect | F102C

Variants of: B1
Conditions: with mk10_human MAPK10, P53779

Row | effect of a mutation on the interaction | Variant
8 | with no effect | F102C

Variants of: B1
Conditions: with mk14_human MAPK14, Q16539

Row | effect of a mutation on the interaction | Variant
9 | with no effect | F102C

Variants of: B1
Conditions: with mk03_human MAPK3, P27361
Chain of mk03_human MAPK3, P27361 (P27361 whole entry): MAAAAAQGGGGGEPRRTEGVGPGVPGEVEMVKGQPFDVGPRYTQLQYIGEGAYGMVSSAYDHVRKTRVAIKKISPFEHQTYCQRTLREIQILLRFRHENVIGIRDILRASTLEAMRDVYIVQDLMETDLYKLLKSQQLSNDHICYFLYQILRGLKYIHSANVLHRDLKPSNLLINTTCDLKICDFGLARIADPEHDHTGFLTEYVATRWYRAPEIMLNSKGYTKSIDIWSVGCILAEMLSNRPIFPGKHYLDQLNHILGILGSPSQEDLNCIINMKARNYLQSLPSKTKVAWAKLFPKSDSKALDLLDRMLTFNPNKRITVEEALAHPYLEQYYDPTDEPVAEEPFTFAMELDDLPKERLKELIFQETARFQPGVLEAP

Row | effect of a mutation on the interaction | Variant
10 | with no effect | F102C

Variants of: B1
Conditions: with mk04_human MAPK4, P31152

Row | effect of a mutation on the interaction | Variant
11 | with no effect | F102C

Variants of: B1
Conditions: with mk06_human MAPK6, Q16659

Row | effect of a mutation on the interaction | Variant
12 | with no effect | F102C

Variants of: B1
Conditions: with sin1_human MAPKAP1, Q9BPZ7
Chain of sin1_human MAPKAP1, Q9BPZ7 (Q9BPZ7 whole entry): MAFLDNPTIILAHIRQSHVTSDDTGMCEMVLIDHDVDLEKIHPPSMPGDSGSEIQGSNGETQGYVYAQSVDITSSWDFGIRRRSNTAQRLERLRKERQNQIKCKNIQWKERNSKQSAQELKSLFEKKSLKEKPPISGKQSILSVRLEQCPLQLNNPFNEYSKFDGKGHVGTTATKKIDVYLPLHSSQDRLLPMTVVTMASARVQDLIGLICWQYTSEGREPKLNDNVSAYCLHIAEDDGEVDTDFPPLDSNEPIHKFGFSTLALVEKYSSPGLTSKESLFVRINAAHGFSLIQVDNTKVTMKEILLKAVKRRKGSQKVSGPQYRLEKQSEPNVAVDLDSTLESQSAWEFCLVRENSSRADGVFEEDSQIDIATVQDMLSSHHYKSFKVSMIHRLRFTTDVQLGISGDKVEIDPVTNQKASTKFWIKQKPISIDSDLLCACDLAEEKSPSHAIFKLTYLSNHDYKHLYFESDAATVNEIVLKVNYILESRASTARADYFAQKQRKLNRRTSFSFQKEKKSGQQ

Row | effect of a mutation on the interaction | Variant
13 | with no effect | F102C

Variants of: B1
Conditions: with mcl1_human MCL1, Q07820
Chain of mcl1_human MCL1, Q07820 (Q07820 whole entry): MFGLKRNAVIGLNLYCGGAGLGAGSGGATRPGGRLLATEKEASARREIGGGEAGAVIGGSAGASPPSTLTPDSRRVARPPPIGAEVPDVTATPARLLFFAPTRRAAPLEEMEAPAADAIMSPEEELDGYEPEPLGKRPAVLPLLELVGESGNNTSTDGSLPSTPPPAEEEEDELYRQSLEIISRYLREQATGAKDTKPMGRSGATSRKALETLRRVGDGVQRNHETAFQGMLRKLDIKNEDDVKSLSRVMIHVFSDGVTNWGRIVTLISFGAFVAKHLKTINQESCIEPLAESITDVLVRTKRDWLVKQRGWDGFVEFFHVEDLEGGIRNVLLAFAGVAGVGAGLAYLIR

Row | effect of a mutation on the interaction | Variant
14 | with no effect | F102C

Variants of: B1
Conditions: with mdm2_human MDM2, Q00987
Chain of mdm2_human MDM2, Q00987 (Q00987 whole entry, looked up): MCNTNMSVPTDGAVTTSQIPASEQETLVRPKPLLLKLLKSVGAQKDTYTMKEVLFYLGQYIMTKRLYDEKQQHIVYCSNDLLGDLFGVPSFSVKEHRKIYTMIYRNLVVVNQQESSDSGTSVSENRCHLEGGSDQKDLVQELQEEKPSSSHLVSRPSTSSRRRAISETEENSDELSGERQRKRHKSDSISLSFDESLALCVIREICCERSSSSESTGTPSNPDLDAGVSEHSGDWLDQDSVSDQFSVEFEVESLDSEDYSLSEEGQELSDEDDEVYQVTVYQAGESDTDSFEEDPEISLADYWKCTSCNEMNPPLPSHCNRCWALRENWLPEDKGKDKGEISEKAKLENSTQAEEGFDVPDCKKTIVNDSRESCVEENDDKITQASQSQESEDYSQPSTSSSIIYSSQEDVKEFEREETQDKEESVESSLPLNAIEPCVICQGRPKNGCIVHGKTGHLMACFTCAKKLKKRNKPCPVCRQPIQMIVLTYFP

Row | effect of a mutation on the interaction | Variant
15 | with no effect | F102C

Variants of: B1
Conditions: with mef2a_human MEF2A

Row | effect of a mutation on the interaction | Variant
16 | with no effect | F102C

Variants of: B1
Conditions: with mitf_human MITF

Row | effect of a mutation on the interaction | Variant
17 | with no effect | F102C

Variants of: B1
Conditions: with mtor_human MTOR

Row | effect of a mutation on the interaction | Variant
18 | with no effect | F102C

Variants of: B1
Conditions: with mybb_human MYBL2, P10244

Row | effect of a mutation on the interaction | Variant
19 | with no effect | F102C

Variants of: B1
Conditions: with myc_human MYC

Row | effect of a mutation on the interaction | Variant
20 | with no effect | F102C

Variants of: B1
Conditions: with mycn_human MYCN

Row | effect of a mutation on the interaction | Variant
21 | with no effect | F102C

Variants of: B1
Conditions: with ncoa3_human NCOA3, Q9Y6Q9

Row | effect of a mutation on the interaction | Variant
22 | with no effect | F102C

Variants of: B1
Conditions: with ikba_human NFKBIA

Row | effect of a mutation on the interaction | Variant
23 | with no effect | F102C

Variants of: B1
Conditions: with nox1_human NOX1, Q9Y5S8

Row | effect of a mutation on the interaction | Variant
24 | with no effect | F102C

Variants of: B1
Conditions: with ntrk2_human NTRK2, Q16620

Row | effect of a mutation on the interaction | Variant
25 | with no effect | F102C

Variants of: B1
Conditions: with ntrk3_human NTRK3, Q16288

Row | effect of a mutation on the interaction | Variant
26 | with no effect | F102C

Variants of: B1
Conditions: with pak3_human PAK3, O75914

Row | effect of a mutation on the interaction | Variant
27 | with no effect | F102C

Variants of: B1
Conditions: with prkn_human PRKN

Row | effect of a mutation on the interaction | Variant
28 | with no effect | F102C

Variants of: B1
Conditions: with pcbp1_human PCBP1, Q15365
Chain of pcbp1_human PCBP1, Q15365 (Q15365 whole entry): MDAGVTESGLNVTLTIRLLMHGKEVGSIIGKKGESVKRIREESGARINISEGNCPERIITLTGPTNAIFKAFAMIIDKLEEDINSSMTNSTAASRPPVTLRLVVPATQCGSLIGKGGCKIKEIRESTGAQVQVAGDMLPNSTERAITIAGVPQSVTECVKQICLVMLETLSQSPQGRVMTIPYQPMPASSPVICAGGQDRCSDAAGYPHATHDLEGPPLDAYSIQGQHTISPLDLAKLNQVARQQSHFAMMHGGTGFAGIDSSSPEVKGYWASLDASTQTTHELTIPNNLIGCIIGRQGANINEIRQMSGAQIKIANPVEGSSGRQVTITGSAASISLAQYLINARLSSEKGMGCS

Row | effect of a mutation on the interaction | Variant
29 | with no effect | F102C

Variants of: B1
Conditions: with pdcd1_human PDCD1, Q15116

Row | effect of a mutation on the interaction | Variant
30 | with no effect | F102C

Variants of: B1
Conditions: with pgfrb_human PDGFRB

Row | effect of a mutation on the interaction | Variant
31 | with no effect | F102C

Variants of: B1
Conditions: with pdk1_human PDK1, Q15118

Row | effect of a mutation on the interaction | Variant
32 | with no effect | F102C

Variants of: B1
Conditions: with PIK3C2B

Row | effect of a mutation on the interaction | Variant
33 | with no effect | F102C

Variants of: B1
Conditions: with pk3ca_human PIK3CA

Row | effect of a mutation on the interaction | Variant
34 | with no effect | F102C

Variants of: B1
Conditions: with pk3cb_human PIK3CB

Row | effect of a mutation on the interaction | Variant
35 | with no effect | F102C

Variants of: B1
Conditions: with pk3cg_human PIK3CG

Row | effect of a mutation on the interaction | Variant
36 | with no effect | F102C

Variants of: B1
Conditions: with p85b_human PIK3R2, O00459

Row | effect of a mutation on the interaction | Variant
37 | with no effect | F102C

Variants of: B1
Conditions: with dpod1_human POLD1, P28340

Row | effect of a mutation on the interaction | Variant
38 | with no effect | F102C

Variants of: B1
Conditions: with dpoe1_human POLE

Row | effect of a mutation on the interaction | Variant
39 | with no effect | F102C

Variants of: B1
Conditions: with ppard_human PPARD

Row | effect of a mutation on the interaction | Variant
40 | with no effect | F102C

Variants of: B1
Conditions: with prdm1_human PRDM1, O75626

Row | effect of a mutation on the interaction | Variant
41 | with no effect | F102C

Variants of: B1
Conditions: with prex2_human PREX2, Q70Z35

Row | effect of a mutation on the interaction | Variant
42 | with no effect | F102C

Variants of: B1
Conditions: with aapk2_human PRKAA2, P54646

Row | effect of a mutation on the interaction | Variant
43 | with no effect | F102C

Variants of: B1
Conditions: with prss8_human PRSS8, Q16651

Row | effect of a mutation on the interaction | Variant
44 | with no effect | F102C

Variants of: B1
Conditions: with tf65_human RELA

Row | effect of a mutation on the interaction | Variant
45 | with no effect | F102C

Variants of: B1
Conditions: with rictr_human RICTOR

Row | effect of a mutation on the interaction | Variant
46 | with no effect | F102C

Variants of: B1
Conditions: with rnf43_human RNF43, Q68DV7

Row | effect of a mutation on the interaction | Variant
47 | with no effect | F102C

Variants of: B1
Conditions: with ros1_human ROS1, P08922

Row | effect of a mutation on the interaction | Variant
48 | with no effect | F102C

Variants of: B1
Conditions: with rl11_human RPL11, P62913

Row | effect of a mutation on the interaction | Variant
49 | with no effect | F102C

Variants of: B1
Conditions: with rl5_human RPL5, P46777

Row | effect of a mutation on the interaction | Variant
50 | with no effect | F102C

Variants of: B1
Conditions: with rs15_human RPS15, P62841

Row | effect of a mutation on the interaction | Variant
51 | with no effect | F102C

Variants of: B1
Conditions: with rptor_human RPTOR

Row | effect of a mutation on the interaction | Variant
52 | with no effect | F102C

Variants of: B1
Conditions: with rxra_human RXRA

Row | effect of a mutation on the interaction | Variant
53 | with no effect | F102C

Variants of: B1
Conditions: with sdha_human SDHA

Row | effect of a mutation on the interaction | Variant
54 | with no effect | F102C

Variants of: B1
Conditions: with setbp_human SETBP1, Q9Y6X0

Row | effect of a mutation on the interaction | Variant
55 | with no effect | F102C

Variants of: B1
Conditions: with skp2_human SKP2, Q13309

Row | effect of a mutation on the interaction | Variant
56 | with no effect | F102C

Variants of: B1
Conditions: with smad1_human SMAD1, Q15797

Row | effect of a mutation on the interaction | Variant
57 | with no effect | F102C

Variants of: B1
Conditions: with smca4_human SMARCA4, P51532

Row | effect of a mutation on the interaction | Variant
58 | with no effect | F102C

Variants of: B1
Conditions: with snf5_human SMARCB1, Q12824

Row | effect of a mutation on the interaction | Variant
59 | with no effect | F102C

Variants of: B1
Conditions: with smo_human SMO

Row | effect of a mutation on the interaction | Variant
60 | with no effect | F102C

Variants of: B1
Conditions: with socs1_human SOCS1, O15524
Chain of socs1_human SOCS1, O15524 (O15524 whole entry): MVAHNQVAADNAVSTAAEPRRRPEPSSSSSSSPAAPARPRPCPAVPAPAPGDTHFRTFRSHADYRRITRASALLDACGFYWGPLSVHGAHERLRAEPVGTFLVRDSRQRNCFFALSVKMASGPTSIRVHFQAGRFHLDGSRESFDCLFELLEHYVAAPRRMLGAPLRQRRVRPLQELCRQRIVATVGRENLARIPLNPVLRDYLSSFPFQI

Row | effect of a mutation on the interaction | Variant
61 | with no effect | F102C

Variants of: B1
Conditions: with sox10_human SOX10, P56693
Chain of sox10_human SOX10, P56693 (P56693 whole entry): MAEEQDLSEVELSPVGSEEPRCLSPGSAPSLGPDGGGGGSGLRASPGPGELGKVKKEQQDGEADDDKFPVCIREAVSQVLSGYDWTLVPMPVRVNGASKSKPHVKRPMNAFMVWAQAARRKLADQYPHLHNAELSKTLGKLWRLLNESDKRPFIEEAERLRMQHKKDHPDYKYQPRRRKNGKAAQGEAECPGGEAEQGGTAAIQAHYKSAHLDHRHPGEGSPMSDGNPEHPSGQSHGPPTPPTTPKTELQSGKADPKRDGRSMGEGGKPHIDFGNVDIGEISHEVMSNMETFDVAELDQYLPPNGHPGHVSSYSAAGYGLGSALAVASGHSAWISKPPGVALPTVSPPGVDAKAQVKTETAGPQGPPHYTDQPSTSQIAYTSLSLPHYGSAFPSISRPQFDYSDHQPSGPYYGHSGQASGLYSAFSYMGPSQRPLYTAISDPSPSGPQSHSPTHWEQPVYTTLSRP

Row | effect of a mutation on the interaction | Variant
62 | with no effect | F102C

Variants of: B1
Conditions: with sox2_human SOX2, P48431
Chain of sox2_human SOX2, P48431 (P48431 whole entry): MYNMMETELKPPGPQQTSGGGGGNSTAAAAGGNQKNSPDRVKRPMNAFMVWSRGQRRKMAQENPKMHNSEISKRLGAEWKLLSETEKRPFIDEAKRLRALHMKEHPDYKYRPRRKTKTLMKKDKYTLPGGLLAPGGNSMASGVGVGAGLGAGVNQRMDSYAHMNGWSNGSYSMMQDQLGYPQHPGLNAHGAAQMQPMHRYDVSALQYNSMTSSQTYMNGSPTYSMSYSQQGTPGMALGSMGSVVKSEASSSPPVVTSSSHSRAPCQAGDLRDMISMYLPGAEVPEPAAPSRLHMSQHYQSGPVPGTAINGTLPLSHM

Row | effect of a mutation on the interaction | Variant
63 | with no effect | F102C

Variants of: B1
Conditions: with src_human SRC

Row | effect of a mutation on the interaction | Variant
64 | with no effect | F102C

Variants of: B1
Conditions: with whr1_human WHR1, P49842

Row | effect of a mutation on the interaction | Variant
65 | with no effect | F102C

Variants of: B1
Conditions: with stk38_human STK38, Q15208

Row | effect of a mutation on the interaction | Variant
66 | with no effect | F102C

Variants of: B1
Conditions: with eloc_human ELOC

Row | effect of a mutation on the interaction | Variant
67 | with no effect | F102C

Variants of: B1
Conditions: with tfe2_human TCF3, P15923

Row | effect of a mutation on the interaction | Variant
68 | with no effect | F102C

Variants of: B1
Conditions: with tead1_human TEAD1, P28347
Chain of tead1_human TEAD1, P28347 (P28347 whole entry): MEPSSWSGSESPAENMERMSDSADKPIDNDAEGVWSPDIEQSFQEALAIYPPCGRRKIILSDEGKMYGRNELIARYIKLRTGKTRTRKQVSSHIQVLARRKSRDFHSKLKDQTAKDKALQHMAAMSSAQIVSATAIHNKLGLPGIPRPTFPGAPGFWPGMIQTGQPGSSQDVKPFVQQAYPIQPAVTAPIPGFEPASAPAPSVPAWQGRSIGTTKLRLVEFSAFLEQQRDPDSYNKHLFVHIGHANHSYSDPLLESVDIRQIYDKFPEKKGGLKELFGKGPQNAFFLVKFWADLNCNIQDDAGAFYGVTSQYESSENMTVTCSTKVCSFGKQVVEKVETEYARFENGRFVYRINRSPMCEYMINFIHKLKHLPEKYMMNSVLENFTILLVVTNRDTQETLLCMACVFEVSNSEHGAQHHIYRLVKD

Row | effect of a mutation on the interaction | Variant
69 | with no effect | F102C

Variants of: B1
Conditions: with tead3_human TEAD3, Q99594

Row | effect of a mutation on the interaction | Variant
70 | with no effect | F102C

Variants of: B1
Conditions: with tead4_human TEAD4, Q15561
Chain of tead4_human TEAD4, Q15561 (Q15561 whole entry): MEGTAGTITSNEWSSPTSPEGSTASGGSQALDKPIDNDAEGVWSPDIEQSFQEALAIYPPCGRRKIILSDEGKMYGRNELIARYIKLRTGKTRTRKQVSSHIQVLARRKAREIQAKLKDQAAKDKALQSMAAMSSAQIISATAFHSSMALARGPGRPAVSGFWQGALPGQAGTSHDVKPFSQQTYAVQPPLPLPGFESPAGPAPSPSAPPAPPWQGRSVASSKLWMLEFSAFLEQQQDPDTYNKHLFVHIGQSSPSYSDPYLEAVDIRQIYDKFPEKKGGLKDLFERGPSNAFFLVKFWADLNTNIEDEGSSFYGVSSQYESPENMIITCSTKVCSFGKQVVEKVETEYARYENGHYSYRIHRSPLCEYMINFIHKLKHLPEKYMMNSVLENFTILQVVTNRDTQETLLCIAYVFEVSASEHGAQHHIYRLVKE

Row | effect of a mutation on the interaction | Variant
71 | with no effect | F102C

Variants of: B1
Conditions: with tgfr2_human TGFBR2, P37173

Row | effect of a mutation on the interaction | Variant
72 | with no effect | F102C

Variants of: B1
Conditions: with tnr14_human TNFRSF14, Q92956

Row | effect of a mutation on the interaction | Variant
73 | with no effect | F102C

Variants of: B1
Conditions: with tsc2_human TSC2, P49815

Row | effect of a mutation on the interaction | Variant
74 | with no effect | F102C

Variants of: B1
Conditions: with tshr_human TSHR

Row | effect of a mutation on the interaction | Variant
75 | with no effect | F102C

Variants of: B1
Conditions: with vegfa_human VEGFA

Row | effect of a mutation on the interaction | Variant
76 | with no effect | F102C

Variants of: B1
Conditions: with vhl_human VHL

Row | effect of a mutation on the interaction | Variant
77 | with no effect | F102C

Variants of: B1
Conditions: with wee1_human WEE1, P30291
Chain of wee1_human WEE1, P30291 (P30291 whole entry, looked up): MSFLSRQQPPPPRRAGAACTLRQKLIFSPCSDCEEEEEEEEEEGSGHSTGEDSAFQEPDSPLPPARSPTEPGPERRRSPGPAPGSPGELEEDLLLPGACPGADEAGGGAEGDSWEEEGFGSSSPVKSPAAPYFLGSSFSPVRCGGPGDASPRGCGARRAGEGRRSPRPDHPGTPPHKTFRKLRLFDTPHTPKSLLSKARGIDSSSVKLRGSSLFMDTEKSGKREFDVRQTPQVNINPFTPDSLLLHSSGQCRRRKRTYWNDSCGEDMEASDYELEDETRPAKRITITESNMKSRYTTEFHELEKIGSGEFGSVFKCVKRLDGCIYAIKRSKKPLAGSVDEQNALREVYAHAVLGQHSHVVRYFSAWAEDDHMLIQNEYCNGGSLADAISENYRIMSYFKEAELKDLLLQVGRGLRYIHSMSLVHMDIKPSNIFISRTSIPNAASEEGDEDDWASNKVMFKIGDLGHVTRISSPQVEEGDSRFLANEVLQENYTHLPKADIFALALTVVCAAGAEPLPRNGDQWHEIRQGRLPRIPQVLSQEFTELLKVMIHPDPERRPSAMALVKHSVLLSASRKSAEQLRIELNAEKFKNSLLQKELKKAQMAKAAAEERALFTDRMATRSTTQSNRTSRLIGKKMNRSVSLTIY

Row | effect of a mutation on the interaction | Variant
78 | with no effect | F102C

Variants of: B1
Conditions: with wwtr1_human WWTR1, Q9GZV5

Row | effect of a mutation on the interaction | Variant
79 | with no effect | F102C

Variants of: B1
Conditions: with xpo1_human XPO1, O14980

Row | effect of a mutation on the interaction | Variant
80 | with no effect | F102C

Variants of: B1
Conditions: with igf1r_human IGF1R

Row | effect of a mutation on the interaction | Variant
81 | causing an interaction | F102C

Variants of: B1
Conditions: with etv1_human ETV1, P50549

Row | effect of a mutation on the interaction | Variant
82 | disrupting interaction strength | F102C

Variants of: B1
Conditions: with pk3ca_human PIK3CA
Remark: another data set of the same source

Row | effect of a mutation on the interaction | Variant
83 | increasing interaction strength | F102C
